The target of test [1] is T1, uPARAP (Homo sapiens, UniProt Q9UBG0).
T1 sequence (Q9UBG0 31-1479): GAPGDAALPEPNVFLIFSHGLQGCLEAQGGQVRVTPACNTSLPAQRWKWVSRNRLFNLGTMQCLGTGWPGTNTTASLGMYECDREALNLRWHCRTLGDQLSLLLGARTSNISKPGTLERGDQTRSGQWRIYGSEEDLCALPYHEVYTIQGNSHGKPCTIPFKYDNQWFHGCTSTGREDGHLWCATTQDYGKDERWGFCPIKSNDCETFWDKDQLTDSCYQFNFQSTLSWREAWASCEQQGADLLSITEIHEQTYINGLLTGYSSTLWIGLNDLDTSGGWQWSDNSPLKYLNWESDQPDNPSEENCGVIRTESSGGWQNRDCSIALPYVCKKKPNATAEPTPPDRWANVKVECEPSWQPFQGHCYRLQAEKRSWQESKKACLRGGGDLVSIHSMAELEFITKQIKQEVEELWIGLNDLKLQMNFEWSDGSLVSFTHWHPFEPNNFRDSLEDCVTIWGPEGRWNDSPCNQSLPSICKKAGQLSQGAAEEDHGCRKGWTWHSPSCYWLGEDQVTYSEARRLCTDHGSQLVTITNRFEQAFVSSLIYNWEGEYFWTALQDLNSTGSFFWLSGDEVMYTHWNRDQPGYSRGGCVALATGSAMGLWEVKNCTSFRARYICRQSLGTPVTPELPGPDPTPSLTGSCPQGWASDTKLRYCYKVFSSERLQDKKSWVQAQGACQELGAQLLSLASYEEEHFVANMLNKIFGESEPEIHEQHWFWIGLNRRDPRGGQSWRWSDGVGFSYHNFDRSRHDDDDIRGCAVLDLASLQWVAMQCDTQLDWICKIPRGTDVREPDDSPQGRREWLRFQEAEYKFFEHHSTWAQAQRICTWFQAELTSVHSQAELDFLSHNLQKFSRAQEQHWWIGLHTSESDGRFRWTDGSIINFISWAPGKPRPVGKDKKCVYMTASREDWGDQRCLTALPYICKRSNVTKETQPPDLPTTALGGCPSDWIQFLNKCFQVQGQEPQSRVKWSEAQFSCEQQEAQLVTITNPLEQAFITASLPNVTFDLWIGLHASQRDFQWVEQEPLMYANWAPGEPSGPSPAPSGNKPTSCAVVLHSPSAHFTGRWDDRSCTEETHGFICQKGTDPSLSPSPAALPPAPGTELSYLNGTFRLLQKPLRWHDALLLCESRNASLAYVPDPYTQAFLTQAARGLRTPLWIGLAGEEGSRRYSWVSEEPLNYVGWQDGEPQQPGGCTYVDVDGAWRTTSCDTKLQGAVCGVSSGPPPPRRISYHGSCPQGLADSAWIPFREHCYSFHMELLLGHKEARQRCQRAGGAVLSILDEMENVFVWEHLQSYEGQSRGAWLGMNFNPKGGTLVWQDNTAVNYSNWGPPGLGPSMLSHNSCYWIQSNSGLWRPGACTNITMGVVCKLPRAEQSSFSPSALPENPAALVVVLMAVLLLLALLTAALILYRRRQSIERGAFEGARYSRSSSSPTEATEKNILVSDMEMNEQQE
Description: Antibody reactivity with uPARAP. The format is binding. The conditions noted are these: listed as 2h9.

Test [2] deals with T1, uPARAP. Description: Western blotting of MG63 cell lysate. The format is binding. On the set-up: endogenous in cells; host or cells: MG63 human osteosarcoma cells. As to conditions: detergent lysate of uPARAP-positive MG63 human osteosarcoma cells. The procedure: For Western blotting, a detergent cell lysate prepared from uPARAP-positive MG63 human osteosarcoma cells was analyzed, using identical concentrations of “2h9 cloned” and “2h9 original” as the primary antibodies. […] No reaction is seen in the absence of primary antibody (negative control).
A general note: Immunoblotting shows a protein as a band on a membrane.

The target of test [3] is T2, soluble recombinant protein consisting of the three N-terminal domains of uPARAP (CysR, FN-II and CTLD-1) (Homo sapiens, UniProt Q9UBG0).
T2 construct: A soluble recombinant protein consisting of the three n-terminal domains of uPARAP (CysR, FN-II and CTLD-1)
T2 sequence (Q9UBG0 41-360 limits assumed): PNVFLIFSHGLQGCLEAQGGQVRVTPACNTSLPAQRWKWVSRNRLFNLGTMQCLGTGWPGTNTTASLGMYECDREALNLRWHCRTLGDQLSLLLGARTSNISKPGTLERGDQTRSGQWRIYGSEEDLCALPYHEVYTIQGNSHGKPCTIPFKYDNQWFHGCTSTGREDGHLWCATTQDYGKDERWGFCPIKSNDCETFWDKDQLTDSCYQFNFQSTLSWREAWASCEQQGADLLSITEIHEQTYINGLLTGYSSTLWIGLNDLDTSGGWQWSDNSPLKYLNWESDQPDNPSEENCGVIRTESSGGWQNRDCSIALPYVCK
As to conditions: immobilized 2h9, soluble three-domain protein; Jürgensen et al., 2011; cited from earlier work.

Test [4] concerns the target T3, soluble truncated uPARAP protein containing the first 3 N-terminal domains of human uPARAP (Homo sapiens, UniProt Q9UBG0).
T3 construct: a soluble truncated uPARAP protein containing the first 3 N-terminal domains of human uPARAP
T3 sequence (Q9UBG0 31-365): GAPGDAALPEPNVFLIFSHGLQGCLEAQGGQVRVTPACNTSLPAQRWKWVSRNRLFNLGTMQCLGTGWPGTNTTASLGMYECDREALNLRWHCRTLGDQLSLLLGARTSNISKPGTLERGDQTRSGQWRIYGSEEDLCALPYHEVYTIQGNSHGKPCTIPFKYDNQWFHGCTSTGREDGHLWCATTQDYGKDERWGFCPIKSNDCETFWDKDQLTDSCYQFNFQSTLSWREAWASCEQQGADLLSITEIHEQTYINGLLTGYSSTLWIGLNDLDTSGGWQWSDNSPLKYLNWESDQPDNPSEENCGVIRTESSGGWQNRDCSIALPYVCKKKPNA
Nature of the test: ELISA analysis of uPARAP-binding of mAbs. The conditions noted are these: after reduction step of conjugation, or in ADC form. As for the experimental part:
Untreated mAbs (2h9 or aTNP), same mAbs subjected to the reduction procedure of conjugation (see above), or ADCs 2h9-vc-MMAE or aTNP-vc-MMAE, were then employed as a primary antibody, followed by a HRP-conjugated rabbit anti-mouse Ig secondary antibody. Finally an o-phenylenediamine dihydrochloride-containing substrate solution was added, and the color reaction was stopped by adding 1M H2SO4. Plates were read at 492 nm using a plate reader.
(In general: In an ELISA, binding on a coated surface is turned into a signal by an enzyme label.)

“Also recorded” adds a separate entry of the source.

The text below walks through data of patent publication US11819552B2, “Antibody-drug conjugates targeting uPARAP” (RIGSHOSPITALET, priority 2016, dated 2023).

B1: mAb 2h9: mouse monoclonal IgG1k anti-uPARAP antibody clone 2.h.9: F12, produced by hybridoma cell culture (protein)
light: DIQMTQSPASQSASLGESVTITCLASQTIGTWLAWYQQKPGKSPQLLIYAATTLTDGVPSRFSGAGSGTKFSLKISSLQAEDFASYFCQEFFSTPFTFGSGTKLELKRADAAPTVSIFPPSSEQLTSGGASVVCFLNNFYPKDINVKWKIDGGERQNGVLNSWTDQDSKDSTYSMSSTLTLTKDEYERHNSYTCEATHKTSTSPIVKSFNRNEC
heavy: QVQLQQPGTELVRPGLSVKLSCKASGYTFTSYWMNWVKQRPGQGLEWIGMIHPSNDEKRINQKFKDKATLTVDKFSSTVYMQVSSPTSEDSAVYYCARGGGDYVGDYALDFWGQGTSVTVSSAKTTPPSVYPLAPGSAAQTNSMVTLGCLVKGYFPEPVTVTWNSGSLSSGVHTFPAVLQSDLYTLSSSVTVPSSTWPSETVTCNVAHPASSTKVDKKIVPRDCGCKPCICTVPEVSSVFIFPPKPKDVLTITLTPKVTCVVVDISKDDPEVQFSWFVDDVEVHTAQTQPREEQFNSTFRSVSELPIMHQDWLNGKEFKCRVNSAAFPAPIEKTISKTKGRPKAPQVYTIPPPKEQMAKDKVSLTCMITDFFPEDITVEWQWNGQPAENYKNTQPIMDTDGSYFIYSKLNVQKSNWEAGNTFTCSVLHEGLHNHHTEKSLSHSPGK
Regarding B1, the “Reactivity with human uPARAP” value in test [1] was “reactive against both human and murine uPARAP; also recorded: reacts with both human and mouse uPARAP”. In addition, the “Reactivity in Western blotting” value in test [2] was “react specifically with the uPARAP protein”. Besides, in test [3], the “Binding in BIAcore setup” value was “binds to immobilized 2h9”. Further, the figures for the “Affinity towards uPARAP following conjugation procedure” value in test [4] and in test [4] (listed as 2h9) were “retained affinity” and “negligible loss of affinity”, respectively.
